Experiment [1] has as its system CB1 receptor signaling, WIN55,212 induced ERK phosphorylation in Trex-CHO CB1 receptor cells. Kind of experiment: ERK activation assay (western blot). Type of experiment: cell-based, human. To be noted: 100 nM. How it is done:
Two days before the experiment, Trex-CHO CB1 receptor cells were seeded at 500,000 cells/well into 6-well plates. 1 μg/mL tetracycline was used to induce CB1 receptor expression after 24 hours. Cells were serum starved for at least two hours before the experiment. […] Cell lysates were harvested and the level of ERK activation was determined by western blot. Anti-ERK and Anti-phospho-specific ERK antibodies were obtained from Cell Signaling Inc.
Two days before the experiment, Trex-CHO CB1 receptor-expressing cells were seeded at 500,000 cells/well into 6-well plates. 1 μg/mL tetracycline was used to induce CB1 receptor expression after 24 hours. Cells were serum starved for at least two hours before the experiment. […] Cell lysates were harvested and the level of ERK activation was determined by western blot. Anti-ERK and Anti-phospho-specific ERK antibodies were obtained from Cell Signaling Inc.
On the technique in general: A western blot detects proteins with antibodies after separation by electrophoresis.

Experiment [2] has as its target T1, human CB1 expressing TRex-CHO cells (Homo sapiens, UniProt P21554).
T1 construct: pcDNA4/TO native full length human CB1 receptor construct was transfected into tetracycline inducible system Trex-CHO and Trex-293 cells; expressed in transfected cells
The class given is cell-based. The conditions noted are these: forskolin stimulated TRex-CHO CB1 cells.
Procedure: Data analysis was performed using GraphPad Prism software.
Data analysis was performed using GraphPad Prism.

Experiment [3] addresses T2, CB1 surface expression (CB1 TRex-CHO / TRex-293 cells) (Homo sapiens, UniProt P21554).
T2 construct: pcDNA4/TO native full length human CB1 receptor construct was transfected into tetracycline inducible system Trex-CHO and Trex-293 cells; expressed in transfected cells; tetracycline induced
The class given is cell-based. The conditions noted are these: for effect on WIN55,212 induced CB1 receptor internalization: antibody 300 nM pre-treatment, 1 μM WIN55,212 1 hour; for CB1 receptor internalization induced by the substance alone: 1 hour. As to the method: 5×10^5 cells/well stably expressing CB1 TRex-CHO cells were seeded in a 6-well plate. Tetracycline (1 μg/ml) was added to culture medium for 24 hours to induce CB1 expression. On the day of the experiment, cells were serum starved for 2 hours. Cells were then pre-incubated with CB1 antibody (300 nM), AM6545 (CB1 neutral antagonist) and negative control (BRIL binder) for half an hour. […] Surface expression of CB1 was stained with anti-CB1 N-terminus mouse monoclonal antibody from R&D and the mean fluorescence intensity (MFI) was determined using flow cytometry.
The impact of CB1 antibody on receptor internalization was also investigated. […] Cells were harvested and stained with anti-CB1 N-terminus mouse monoclonal antibody (R&D).
On the day of the experiment, cells were serum starved for 2 hours. Cells were then pre-incubated with CB1 antibody (300 nM), AM6545 (CB1 neutral antagonist) and negative control (BRIL binder) for half an hour. […] Surface expression of CB1 was stained with anti-CB1 N-terminus mouse monoclonal antibody from R&D and the mean fluorescence intensity (MFI) was determined using flow cytometry (Guava).

Experiment [4] concerns the target A139 iCAPS (human CB1, ICL3 replaced with BRIL). Kind of experiment: ELISA binding of IgG/Fab to CB1 iCAPS A139. To be noted: IgG and Fab ELISA, Table 8. How it is done:
(§1) Purified IgG was tested for binding to purified CB1 receptor (CB1 Conformation Antigen Presenting System (iCAPS)) by ELISA. Non-biotinylated antigens (e.g. empty iCAPS) were coated directly on Maxisorp plates. The primary antibodies were purified IgGs with 1:3 serial dilutions, incubated on the plate for 1 hour. After 3 rounds of washing with PBST, secondary antibodies HRP goat anti-mouse IgG (Abmart) or HRP goat anti-human IgG (Sigma), depending on the species of the IgGs were added and incubated for another hour. The plates were washed three times with PBST, then developed with TMB (Biopanda). HCl was added to the plates to stop the reaction. Absorbance at 450 nm was read on Emax precision microplate reader (Molecular Devices).
(§2) IgG and Fab molecules tested were 36E12B6C2 IgG, 36E12B6C2 Fab, PA13R3-P1C4 IgG, and PA13R3-P1C4 Fab, compared to negative control BRIL binder P1F7 IgG and P1F7 Fab. For IgG antibodies, the secondary antibody used to detect binding was anti-mouse IgG-HRP; for Fabs, the secondary antibody used to detect binding was anti-human IgG-HRP.
(In an ELISA, binding on a coated surface is turned into a signal by an enzyme label.)

Experiment [5] deals with A138 iCAPS (human CB1, ICL3 replaced with protein 1 sequence). The experiment is described as follows: ELISA binding of IgG/Fab to CB1 iCAPS A138. The conditions noted are these: IgG and Fab ELISA, Table 8. How it is done:
as §1, §2

Positions count from the first letter of the chain named.

T2 sequence (P21554 whole entry): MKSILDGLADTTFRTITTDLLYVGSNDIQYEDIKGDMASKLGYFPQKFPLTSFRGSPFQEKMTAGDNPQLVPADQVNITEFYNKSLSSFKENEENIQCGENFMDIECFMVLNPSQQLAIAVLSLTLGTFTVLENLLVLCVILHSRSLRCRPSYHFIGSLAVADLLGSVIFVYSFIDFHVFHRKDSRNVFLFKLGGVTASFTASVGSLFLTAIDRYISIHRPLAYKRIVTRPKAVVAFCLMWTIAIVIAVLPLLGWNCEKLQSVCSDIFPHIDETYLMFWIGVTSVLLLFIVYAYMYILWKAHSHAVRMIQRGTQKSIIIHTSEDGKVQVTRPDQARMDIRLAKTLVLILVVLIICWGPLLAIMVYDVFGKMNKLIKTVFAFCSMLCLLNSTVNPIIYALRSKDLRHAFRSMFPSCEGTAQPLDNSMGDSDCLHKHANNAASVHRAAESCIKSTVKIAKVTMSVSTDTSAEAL
T1 sequence (P21554 whole entry): as above

For the molecule `Cc1c(C(=O)c2cccc3ccccc23)c2cccc3c2n1[C@H](CN1CCOCC1)CO3` [WIN55,212, reference compound], the “ERK activation by agonist” value in experiment [1] is reported as “induced ERK activation”. Regarding `Cc1c(C(=O)NN2CCS(=O)(=O)CC2)nn(-c2ccc(Cl)cc2Cl)c1-c1ccc(C#CCCC#N)cc1` [AM6545, reference compound], the “effect on cAMP levels without exogenous agonist / mechanism” value in experiment [2] is “did not affect cAMP levels”. Moreover, the “effect on WIN55,212 induced CB1 receptor internalization” value in experiment [3] was “blocked”.

B1: PA2LR3-P4C6: phage-derived CB1 binding IgG clone (antibody, V domains shown)
VH: EVQLQQSGAELVRPGSSVKISCKASGYAFSYYWMNWVKQRPGQGLEWIGQIYPGDGDTNYNGKFKGKATLTADKSSSTAYMQLSSLTSEDSAVYFCARSHGNYFPYWGQGTLVTVSA
VL: DIVITQSPAIVSASLGERVTMTCTASSSVSSSYLHWYQQKPGSSPKLWIYSTSNLASGVPARFSGSGSGTSYSLTISSMEAEDAATYYCQQWSSYPLTFGAGTKLEIK
modifications: PA2LR3-P4C6 Heavy Chain Variable region; PA2LR3-P4C6 Light Chain Variable region
On to B1, for which, in experiment [3], the “CB1 receptor internalization induced by the substance alone” value (“CB1 receptor internalization induced” for short) is “do not induce” and the “effect on WIN55,212 induced CB1 receptor internalization” value is recorded as “do not block”.

B2: PA2LR3-P4G10: phage-derived CB1 binding IgG clone (antibody, V domains shown)
VH: B1 VH with S7F, P105A
VL: B1 VL with I4L, V11M, Y95N, I107L
modifications: PA2LR3-P4G10 Heavy Chain Variable region; PA2LR3-P4G10 Light Chain Variable region
As to B2, in experiment [3], the “CB1 receptor internalization induced” value was “do not induce” and the “effect on WIN55,212 induced CB1 receptor internalization” value is reported as “do not block”.

B3: PA2LR3-P3F8: phage-derived CB1 antibody clone (antibody, V domains shown)
VH: B1 VH with Y31N, K63N
VL: B1 VL with I4L, V11M, I107L
modifications: PA2LR3-P3F8 Heavy Chain Variable Region; PA2LR3-P3F8 Light Chain Variable Region
notes: phage-derived CB1 antibody clone
For B3, in experiment [3], the “CB1 receptor internalization induced” value is “do not induce” and the “effect on WIN55,212 induced CB1 receptor internalization” value is listed as “do not block”.

B4: 36E12B6C2 Fab: Fab of 36E12B6C2 (antibody, V domains shown)
VH: B1 VH with E1Q, A28E, E46Q, Q82H, S84T, H100G, Y103P, P105A, Y106F
VL: DIQMTQTSSSLSASLGDRVTFSCRASQDISNYLNWYQQKPDGTVKLLIYYTSRLHSGVTSRFRGSGSGTDYSLTISNLEQEDVATYFCQQGHTLPWSFGGGTKLEIK
Usually EC50 stands for the concentration at which the effect is half-maximal. A low value points to greater potency. Regarding B4, the EC50 in experiment [4] was determined as 0.805 nM; in experiment [5], 1.02 nM.

B5: PA2LR3-P6G7: anti-CB1 antibody; HC variable SEQ ID NO: 58, LC variable SEQ ID NO: 62 (antibody, V domains shown)
VH: B1 VH with Y27F, Y31N, Y60F, K67R, T69I, K74I, S77N
VL: B1 VL with I4L, V11M, Q90H, W92H, S93H, S94R, Y95S, L97P, I107L
modifications: PA2LR3-P6G7 Heavy chain variable region; PA2LR3-P6G7 Light chain variable region
As for B5, in experiment [3], the “CB1 receptor internalization induced” value is listed as “do not induce” and the “effect on WIN55,212 induced CB1 receptor internalization” value is listed as “do not block”.

B6: PA2LR3-P4B5: anti-CB1 antibody; HC variable SEQ ID NO: 26, LC variable SEQ ID NO: 30 (antibody, V domains shown)
VH: B1 VH with N61S, K63R, M81I
VL: B1 VL with I4L, T5N, V11M, Q90H, W92Y, S93H, S94R, Y95S
modifications: PA2LR3- P4B5 Heavy chain variable region; PA2LR3- P4B5 Light chain variable region
In the case of B6, in experiment [3], the “CB1 receptor internalization induced” value is recorded as “do not induce” and the “effect on WIN55,212 induced CB1 receptor internalization” value is “do not block”.

B7: PA2LR3-P6B12: anti-CB1 antibody; HC variable SEQ ID NO: 50, LC variable SEQ ID NO: 54 (antibody, V domains shown)
VH: B1 VH with P105A
VL: B1 VL with D1Q, I4L, V11M, Q90H, W92Y, S93H, S94R, Y95S, T98A, I107L
modifications: PA2LR3-P6B12 Heavy chain variable region; PA2LR3-P6B12 Light chain variable region
In the case of B7, in experiment [3], the “CB1 receptor internalization induced” value was “do not induce” and the “effect on WIN55,212 induced CB1 receptor internalization” value is reported as “do not block”.

B8: PA2LR3-P5E7: phage-derived CB1 antibody clone (antibody, V domains shown)
VH: B1 VH with Y31N, Y60F, K67R, T69I, K74I, S77N
VL: DIVLTQSPTTMAASPGEKITITCSASSSISSNYLHWYQQKPGFSPKLLIYRTSTLASGVPARFSGSGSGTSYSLTISSMEAEDAATYYCHQYHRSPHTFGSGTKLEIK
modifications: PA2LR3-P5E7 Heavy Chain Variable region; PA2LR3-P5E7 Light Chain Variable region
notes: as for B3
For the molecule B8, in experiment [3], the “CB1 receptor internalization induced” value is listed as “do not induce” and the “effect on WIN55,212 induced CB1 receptor internalization” value is recorded as “do not block”.

B9: PA2LR3-P3A8: phage-derived CB1 antibody clone (antibody, V domains shown)
VH: B1 VH with F64V, P105A
VL: B1 VL with I4M, V11M, Y95N, I107L
modifications: PA2LR3-P3A8 Heavy Chain Variable Region; PA2LR3-P3A8 Light Chain Variable Region
notes: as for B3
As to B9, in experiment [3], the “CB1 receptor internalization induced” value is given as “do not induce” and the “effect on WIN55,212 induced CB1 receptor internalization” value is “do not block”.

B10: PA2LR3-P4B1: anti-CB1 antibody; HC variable SEQ ID NO: 42, LC variable SEQ ID NO: 46 (antibody, V domains shown)
VH: B1 VH with Y27F, Y31N, Y60F, K67R, T69I, K74I, S77N
VL: B1 VL with D1Q, I4L, V11M, Q90H, W92Y, S93H, S94R, Y95S, I107L
modifications: PA2LR3-P4B1 Heavy chain variable region; PA2LR3-P4B1 Light chain variable region
Consider B10, for which, in experiment [3], the “CB1 receptor internalization induced” value is “do not induce” and the “effect on WIN55,212 induced CB1 receptor internalization” value is recorded as “do not block”.

Values taken from US11421026B2, “Antibodies that bind human cannabinoid 1 (CB1) receptor” (BIRD ROCK BIO, Inc., priority 2015, dated 2022).
